Measured values: the DeepSol protein solubility set

Experiment: soluble on expression in E. coli; label from the status in PepcDB or PDB records

## SLETYGDSLATAVAERWNNHQAFIFGLATGAVVRLIAPLLQSKQSDPAVLVVDAMGQSVISLLSGHQGGGDRLAQIVAEQLQAKAILTGGANGLGQIAVDCLGIPFGWRKGKGDWTAVSSALAAQKLVGVTQTAGLTLWQNHLPPGHGFTFSGTKETTATLLITVQESNLEKLNKPMAPWHPRLLWIGVGCVRGTDLALLERALLEVLERENLSPLAIAGLASVHLKADEVGMQQFAQKYDLPFFTFPPEQLAAQAVPNPSEVVLQEVGTPSVAEAAALTAAQMYSQGGKLIAEKVIVKQHNQAVTVAIAKGE
  soluble on expression in E. coli: not soluble

## MLTLKGKYNEAKVFTDNVDDNTIGQIITLCNQPFAKDSKIRIMPDTHGGKGCVIGTTMTIQDKIVPNLVGVDIGCGLYVVKLKPGKLKMDFDKLDKVIRERVPSGSKTHDKPVDEFDLEGIVAPIHHGWVARSIGTLGGGNHFIEVNQGSDGIYLVIHSGSRVLGKEIAEYHQEVAYKRLDILRKELKLDATAAKKRGNLEMANNLNGEREQVKLDYDLSYVTGVDLKNYLNDMEIAQKFAARNRYVMAQIILKAMKWDKAVVSAFDCVHNYIDIEHNMLRKGATSAQLGEQIIVPLNMREGSILATGKGNADWNYSAPHGAGRMLSRSKAKAQISLESYQAAMKDVWTTSVSKKTIDEAPKAYKSAKQLLADVEDTMEIQEIIKPLYNFKALEHHHHHH
  soluble on expression in E. coli: soluble

## MTAGVTTGAFYKHFTSKEALFEEIIQPHINALINMYNEEFAKYLLNLENIDIEKSWRENFNELDPFINYIFENKRIFDLVLFQSAGTKYQDIVEKITSFVTKKTVCCLDKLKTIGMINQNLVFNEEEIHFYIYSFYATFYDILKHSYSKEKTMLLTRRLYQFSVPGWIELLS
  soluble on expression in E. coli: not soluble

## MESFRFDPAGNLLDNAPAPDGHQNDSLLGNLLSQYAGRHYRYDSRGNLVEKRVNGSLTRLEWDSHSRLSRLIAPDGQRTDYHYDPLGRRIAKISQGQATLYGWDGDVLAFETRDEEAVHYLFEPDSFVPLAQVHTDAIRGVKVPAWSQHHPYDPDKDPLRQPAPEPEAPKAVYYYHTDHLGTPQALTDEQGLLALEMDYQAWGQAREVIADAAGKAGIRNPFRFQGQYHDDESGLHYNRHRYYDPEIGRFISRDPIGLKGGYNLFAYAPNTIEWVDPFGLTKLRETDPKARSLSNVQTRCWYLREESKIGYQIDCTKPIKQQARQAARLRNEARIRARLLMADREKAIALHQSDPNLTFKELMALKENKKGLTGKDAYQDIVDSASKSRQSVNKALLEGVDCDKVLEGILEHHHHHH
  soluble on expression in E. coli: soluble

## MNESIYTTPQSSKTPKSKSARYSSPYQVIDLNNESQEDLKTRLLEAENIIQDLRSERDALHESLVDKAGLNESVIIERSNKVSTQETRIYRRDVTLLEDDLKQKESQIRILQNRCLRLETEKQKMQDTISGYQEDLKENEIRIENLNSRLHKLEDELSAKTHEIFSIGEELKNKTMKLNEKNSQFQTKLAEISSENRNLERKVQKFREELIVKDQRSLEVHQDQENTQKVLKEVKQLSDRLDYLTPKRKDVSRIKERDDFLQFSAKIIEETMSELKLKNARLERELSEKEELVKVTKEELQELQKTVTQAMGDSEQATKYLHAENMKLTRQKADIRCDLLEARRNLKGFDEKREELEKQRDEALEDVRRITELKKNVEIELRSLKLLAEEREEQIDELKSRVAGYEVLRRDHEAVKNELAKAEEKLNKMGAHLVMADKQSSHFKTLKETAEGSRRRAIEQCNEMVARIRGLEASLENQRKVEQELEMVKAENVRQAKKIEFMKEEIQETHLDYREELSKLAKGGGSHEADSQRDSELRSAKKTIQEVKADNKKLQQILEEVRQNQSKVLEENVKLRKGMAEAIEKIEEFKRNWHSSREAGERLQLEAKENEEKVLKVEEELQEKRLEVLEKEELVNYLQSQINTKQTKQPKLSRRSTLMSTISEVDTSTYVREVEEVRALEEQREELQAYLAEKRKMADLQKSRSTANTTTLITSTTATEVSKSACELSYPPATMRHDIPHKWLEFRHYSVLSMKCSLCFVGITFFTKANKCSHCDVRVHASCAPRVNNTCGIPAQCATYYQDAQAVGGIGRMNGWLRVYRDDLPESTWTSLWAMMDSNHVKFYRDAGADNLENPYFTIDLNKEQWILRTGQEVAIPGDVMRNVLTIKLQTRSVHIVAPTPKSAERWAACLQNAQTRRMMKNSKPSSIAEYSCLLTLSLPNNLKIFKAHTIEDWILFATQTGLFFTSISQPRNPTRIAGPSSVTSLEVMSEINCVAMITNSNRQLALIPLDSLTLAMQSTHPSIRAEVLPEFGHVHTIRYHQQDGQRFLLVSDDTQLHIRKYNSTRDVFAHFAKLVVPEPVSFIESTPAGFIFASDTFYYVPLDHQSPSDVSARKLMPPRRSDYPVSAHAITANEILLAYQNHGIFVNLYGEQSRNQIIEWEKMPIEFAYTSPLLYIVHDDSIEIVQISKSSKETVLAEREVIACVNAHIVQSDGVLISVSSKDITEVHRFSATCRGTGTKRRGISPFNTLKRSKN
  soluble on expression in E. coli: not soluble

## MTMKEKKLKIDISGVDPICNKSKGDDFYDVVNRQLSRRSFLKGGLGVAVSSFMLSPLMAGCTSSKGTARSSAGLGFQAIAGNRTDVVDVPVGYRAQPFLPWGTPLVPGAGEFKTDASNSALDQARQVGSHHDGMHFFPIDVKEGGASSKEGLLVMNHEYVDPQILHASFSPNAPRPQQEVLKEMMAHGVSVAHIIRKPDGEWQLVEGSPYNRRITASTPMQMSGPVAGHDKLVTRFSPDGTKTRGTINNCSHGHTPWGTYLTCEENWAGCFMNDDDTHPREHERYGVNRENSRYYWETATPGLDETLRFNASSTGSTAADDYRNEPNHFGWIVEIDPFNAKSTPVKRSMLGRFAHEGIVFAPAVEGEPLVAYSGDDSRFEYIYKFVSAKPYYKATASGELLNEGTLYVAQFNDDGTGRWLPLDIENSEFQAKASEAGVGFHSQADVLLNTRLAADVMGATKMDRPEWGAVHPTTKEVYFSLTNNTRRTEVQTNAVNPRAENAYGHIVRWSEDNQQSAESFHWDIFLMGGEAGTRTPNAEGKDLTLTSNNQFACPDGLWFDHRGTLWIQTDMSGELLSEGSFGNNGMYAANPESGELKRFLVGPVDCEITGVVTTPDGKTMFVNVQHPGDRLAPGKFSLEHHHHHH
  soluble on expression in E. coli: soluble

## MSLKNTGYILALCLTASGHVLAHDVWITGKQAENNVTAEIGYGHNFPSKGTIPDRRDFFENPRLYNGKETITLKPASTDYVYKTESASKDNGYVLSTYMKPGYWSRTSSGWKPVSREGRNDVAYCEFVTKYAKSFIPGEQQMPAQLYQSPTGHELEIIPLSDISRFSENVKLKVLYKTSPLAGAIMELDSVSYLTSSRHTHAVEHKHPVHKAELTFVTNEDGIVTVPSLHIGQWLAKVQNKKSFQDKSLCDETVDVATLSFSRNEGHHHHHH
  soluble on expression in E. coli: soluble

## TCSQPNNFPAEIPLYKQSFKNWAGDIKVDDVWTCAPRSADEVVKVANWAKDNGYKVRARGMMHNWSPLTLAAGVSCPAVVLLDTTRYLTAMSIDASGPVAKVTAQAGITMEALLTGLEKAGLGVTAAPAPGDLTLGGVLAINGHGTAIPAKGERRLAGASYGSISNLVLSLTAVVYDKASGAYALRKFARNDPQIAPLLAHVGRSLIVEATLQAAPNQRLRCQSWFNIPYGEMFAAAGSGGRTFASYLDSAGRVEAIWFPFTSNPWLKVWTVTPNKPLFSRQTDKPFNYPFSDNLPDEVTDLANKILSLGDGKLTPAFGKAQFAAASAGLVATASWDLWGWSKNLLLYVKPTTLRVTANGYAVLTRRENVQRVLNEFVTFYQARVQAYQQQGRYPMNGPVEIRVTGLDDPSEAALSGGVAPALSAIRPRPDHPEWNVAVWLDILTLPGTPYANQFYREIEQWIEANFNGSYAAVRPEWSKGWGYTDQAAWADSAMLQTTIPNAFRAGQPAAANWDAAKAALAAYDPYRLFSSPLLDSLGL
  soluble on expression in E. coli: soluble

## KSGKEAGSQIMKFEVQDASPTIATELNLVTGEQVYYIKRLRFIEDNAAQLEETWMSVARFPDLTVSHMQKSKFSYIENECGIKIIGTFETFSPTFPTPEIASILRISPRDPILKIQTQAVDSNSIPLDYSLLYSNIFEFQVKYFFPR
  soluble on expression in E. coli: not soluble

## MQFYAALFDFPCVPEISGPQPGNDEKSWQRDFLALTNARGTFDPWDTQTCQPCTLEGIVSRNHDAFSVADFSHNVFKYVRKNHVKTTVHWKRHWQRARMAHEFVYGEQS
  soluble on expression in E. coli: not soluble

## MATGLGFFKLSFLLSLLSGGSDLLGPDAESGVAQIGKFPPSCNRIECPSYELVHSGNGYEIRRYNNTVWVSTEPIPDISLVDATRTAFFQLFAYIQGKNEYHQKIEMTAPVISQVSPSDGPFCESSFTVSFYVPKKNQPDPAPSENLHIQKWNSRYVAVRQFSGFVSDDSIGEQAAALDSSLKGTAWANAIAKSKEDGGVGSDSAYTVAQYNSPFEFSGRVNEIWLPFELDV
  soluble on expression in E. coli: not soluble

## MSGEKIDITPKKDGGVLKLIKKEGQGVVKPTTGTTVKVHYVGTLENGTKFDSSRDRGDQFSFNLGRGNVIKGWDLGVATMTKGEVAEFTIRSDYGYGDAGSPPKIPGGATLIFEVELFEWSAEDISPDRDGTILRTIIVEGSKNSFPNDTSKVLAHCVGTYQGTEFYNREVNFHIGEGSEEGLPEGVERALRRFQLGEKSKIEIRGHKYTYGNSPPAGSNIPVNATLEFTIFLKEFEKVPATWEMTAEEKLDAAKQAKDRGTMYLQKGNLKLAYNKYKRAEEVLEYEKSTDPEKMAERETILNGAYLNLSLVCSKQNEQLECIKWCDKVLETKPGNVKALYRKATALLTMNEVRDAMKLFEKIVEVEPENKAAAQQIIVCRNTIREQNERDKKRFKNLFAKISTEEDKPTNTVEDEDEIVASTSGSSTSNA
  soluble on expression in E. coli: soluble

## QKFIARNRAPRVQIEYDVELYGAEKKVQLPFVMGVMADLAGKPAEPQAAVADRKFLEIDVDNFDARLKAMKPRVAFNVPNVLTGEGNLSLDITFESMDDFSPAAVARKVDSLNKLLEARTQLANLLTYMDGKTGAEEMIMKAIKDPALLQALASAPKPK
  soluble on expression in E. coli: not soluble

## GSAAPPAKEIPEVLVDPRSRRRYVRGRFLGKGGFAKCFEISDADTKEVFAGKIVPKSLLLKPHQREKMSMEISIHRSLAHQHVVGFHGFFEDNDFVFVVLELCRRRSLLELHKRRKALTEPEARYYLRQIVLGCQYLHRNRVIHRDLKLGNLFLNEDLEVKIGDFGLATKVEYDGERKKTLCGTPNYIAPEVLSKKGHSFEVDVWSIGCIMYTLLVGKPPFETSCLKETYLRIKKNEYSIPKHINPVAASLIQKMLQTDPTARPTINELLNDEFFTSGYIPARLPITCLTIPPRFSIAPSSLDPSNRKPLTVLNK
  soluble on expression in E. coli: soluble

## MLDNRPIGVFDSGIGGLTIVKNLMSILPNEDIIYFGDIARIPYGTKSRATIQKFAAQTAKFLIDQEVKAIIIACNTISAIAKDIVQEIAKAIPVIDVITAGVSLVDNLNTVGVIATPATINSNAYALQIHKKNPNIEVYSNPCGLFVSMIEEGFVSGHIVELVAKEYLSYFHDKNIQALILGCTHYPIIKESIAKILDVKLIDPSLQASKMLYSLLFENKLLNTTKSNPEYRFYVTDIPLKFRSVGEMFLQTEMQHLEIVSLDSY
  soluble on expression in E. coli: not soluble

## MKRNGETKRRRNVAEEAEQGEDPAMWENLDRNFRQVQSVLDRNRSLIQQVNDNHQSRMADNMSKNVALIQELNGNISKVVNMYSDLNTSFSSGFHGGKNGHDGGGAAGTRA
  soluble on expression in E. coli: soluble

## MGSDKIHHHHHHMQPEFNRPEFLEGNSAEEIHERMMNNLPDDIDDMPGGFPYDMTMPAALEKDEIINFHIVRALMIAFPEYAWDEWLDLHGRQVHLTRHEAEPAFGYVKITAAEGTEILSGTVFCTAATETGPSIEYATTEDVVVGGEGSVLIPVSAVEAGTGSNVAANTVVLMMVPDKNVTEINNPEPIRGGTERETDDDFYDRIAAEYDNSMTYLGNDTDYKRWAKQAGAGDAIVISTWNGPGTVKLVLVDGNGKPANAKLVQDVYNYIVSPNDRSARLLPTGTAELTCAAATTVAVNYVIAGLSYDETTGIEQIKADFTEAVRAVYAQAKTEGVLRYNDVRPLISAIAGVEDFETFTMNGKMQNITLKSEEYPDTGTLNFS
  soluble on expression in E. coli: not soluble
